This is an account of results in patent US20160075789A1.

The target in test [1] is Fc-EDA1 (human). Briefly: cell-based or functional assay.
Test [2] concerns the target Fc-EDA1 (human). Briefly: sandwich ELISA of Fc-EDA1 pre-incubated in buffer or mouse serum (FIG. 26). For orientation: An ELISA detects its analyte on a solid surface through an enzyme-linked reagent.
Test [3] concerns the target Fc-EDA1 (human). Briefly: sandwich ELISA, EctoD2 at capture, biotinylated EctoD3 at revelation (FIG. 24).

Sequence of Fc-EDA1 (human) (Q92838 249-385): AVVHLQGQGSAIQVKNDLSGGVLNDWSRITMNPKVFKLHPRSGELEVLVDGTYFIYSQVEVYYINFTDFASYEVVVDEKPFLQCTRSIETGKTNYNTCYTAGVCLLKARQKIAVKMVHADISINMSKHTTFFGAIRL

B1: mAbEDA1-EctoD2 (antibody, mouse IgG1, V domains shown)
VH: EVMLEESGGGLVKSGGSLKLSCAASGFTFSTYAMSWVRQTPGKRLEWVAAISDGGDNTYYLDSVKGRFTISRDNAKNTLYLQMSSLRSEDSALYYCARQYNDYEAMDYWGQGTSLTVSS
VL: DIVLTQSPTSLAVSLGQRATISCRASESVDSYGSSFMHWYQQKPGQPPKLLFYRASNLESGIPARFSGSGSRTDFTLTINPVEADDVATYYCQQSNEDPFTFGSGTKLEIKR
Consider B1, for which, in the test with Fc-EDA1 (human) [1], the cytotoxicity assay using EDAR-Fas Jurkat cells (PMS/MTS viability): antibody concentration at which 40 ng/mL of Fc-EDA1 is completely inhibited amounted to 125 ng/mL and the cytotoxicity assay using EDAR-Fas Jurkat cells: stoichiometry of inhibition (antibodies per Fc-EDA1) was 5. In the test with Fc-EDA1 (human) [2], this molecule displayed a most sensitive detection of Fc-EDA1 of less than 1 ng/mL. The concentration of Fc-EDA1 readily detected in the test with Fc-EDA1 (human) [3] was less than 1 ng/mL.

B2: mAbEDA1-EctoD3 (antibody, mouse IgG1, V domains shown)
VH: QVQLHQSGAELARPGASVKLSCKASGYTFTSYGISWVKQRTGQGLEWIGEVYPRSGDTYYHDYFEGKATLTADKSSSTAYMELRSLTSEDSAVYFCARGDYADVWGTGTTVTVSS
VL: DIVLTQSPASLAVSLGQRATISCRASKSVSTFGNSYMLWYQQKPGQPPKLLIYLASNLESGVPARFSGSGSGTDFTLNIHPVEEEDAATYYCQNSRELPYTFGGGTKLEIKR
B2 had a most sensitive detection of Fc-EDA1 with Fc-EDA1 (human) [2] of less than 1 ng/mL. In addition, in the test with Fc-EDA1 (human) [3], the concentration of Fc-EDA1 readily detected is less than 1 ng/mL.
